According to patent US11311626B2, “Plasmin-cleavable anti-insoluble fibrin antibody-drug conjugate” (NATIONAL CANCER CENTER JAPAN, priority 2017, dated 2022):

Key:
[1] = test system: triple mutant mouse-derived pancreatic cancer cell line; conditions: Alexa 647-labeled antibody, 300 μg per mouse, tail vein, imaging 1 h to day 7, FIG. 2
Experimental: Accordingly, in vivo imaging was performed using the cell line. […] The pancreatic cancer cell line was cultured in 500 mL of a RPMI 1640 (FUJIFILM Wako Pure Chemical Corporation) medium supplemented with 100 mL of inactivated fetal bovine serum (FBS, Gibco) and 10 mL of 100 units/mL Penicillin, 100 μg/mL Streptomycin, and 250 ng/mL Amphotericin B (FUJIFILM Wako Pure Chemical Corporation). The culture supernatant was then removed. The cells were washed with PBS (Invitrogen), and 2 mL of Trypsin-EDTA [0.25% (w/v) trypsin-1.0 mmol/L ethylenediaminetetraacetic acid-4Na Solution with Phenol Red, FUJIFILM Wako Pure Chemical Corporation] was added thereto. The cells were detached by pipetting and placed in a 15-mL tube (Corning Incorporated), followed by centrifugation with a centrifuge (Universal centrifuge 5800, KUBOTA Corporation Co., Ltd.) at 270×g for 3 minutes at 4° C. The supernatant was removed, and the precipitate was resuspended in 10 mL of PBS, followed by centrifugation at 270×g for 3 minutes at 4° C. After repeating this procedure three times, the concentration was adjusted to 2×10^6 cells/50 μL with PBS, and the cell solution was subcutaneously injected to 5-week old BALB/c Slc nu/nu mice (Japan SLC, Inc.) at 50 μL per mouse from the left foot base. […] The control used was InVivoMAb Mouse IgG1 Isotype control (Bio X Cell). […]

[2] = biological target: peptide of the epitope site of 102-10 (Homo sapiens, UniProt P02675); test: Verification of affinity by SPR (Biacore T200, multi cycle kinetics); type: binding; conditions: for Dissociation rate constant kd: immobilized epitope peptide of 102-10; for Binding rate constant ka: immobilized epitope peptide of 102-10, antibody 48.875-1500 nM; for Kd: immobilized epitope peptide of 102-10, reference for relative affinity
Experimental: When an antigen is insoluble, although SPR is not suitable for verifying the affinity of the antigen, measurement by SPR was performed as reference for comparing relative affinity levels between antibodies.
The affinity of an antibody to insoluble fibrin was calculated based on analysis by surface plasmon resonance (SPR) using Biacore T200 (GE Healthcare) to evaluate the intermolecular interaction of the antibody. […] The immobilization was performed using an amine coupling kit (BR-1000-50, GE Healthcare) and setting the […] to 90 RU. Subsequently, an antigen-antibody reaction was performed using an antibody diluted to […], 93.75, 187.5, 375, 750, and 1500 nM with 1× HBS-N buffer by a multi cycle kinetics method under conditions shown in Table 1. After the measurement, analysis using BIA evaluation (GE Healthcare) was performed to determine the KD value, kd value, and ka value.

B1: 1101: mAb (mouse IgG1) from clone 1101, mouse immunized with peptide of SEQ ID NO: 27; insoluble fibrin-specific antibody; VH SEQ ID NO: 12, VL SEQ ID NO: 16 (antibody, V domains shown)
VH: MECNWILPFILSVISGVYSEVQLQQSGTVLARPGASVKMSCKASGFSFTSYWMHWVKQRPGQGLEWIGAIYPGNSDTRNNQKFKGKAKLTAVTSANTAYMELSSLTNEDSAVYYCTRKAHYGNYGFAYWGQGTLVTVSAA
VL: MSGHSRNMKFPSQLLLFLLFRITGIICDIQMTQSSSYLSVSLGGRVTITCKASDHINNWLAWYQQKPGNAPRLLISGATSLETGVPSRFSGSGSGKDYTLSITSLQTEDVATYYCQQYWSTPLTFGAGTKLELKRADAAP
For B1, the “Accumulation of antibody to cancer” value [1] was “high”, the “Dissociation rate constant kd” value [2] was 0.00325 s⁻¹ and the “Binding rate constant ka” value [2] was 93700 M⁻¹ s⁻¹. The Kd [2] was 66.8 nM.

B2: 99-5: mAb (mouse IgG1) from clone 99-5, mouse immunized with peptide of SEQ ID NO: 26; insoluble fibrin-specific antibody; VH SEQ ID NO: 4, VL SEQ ID NO: 8 (antibody, V domains shown)
VH: MDWLWNLLFLMAAAQSIQAQIQLVQSGPELKKPGETVKISCKASGYTFTNYGMNWVKQAPGKGLKWMGWINTKIGEPTYAEEFKGRFAFSLETSASTAYLQINNLKNEDTATYFCARLLDYWGQGTTLTVSSAKTTPPSV
VL: METDTLLLWVLLLWVPGSTGDIVLTQSPASLAVSLGQRATISCRASESVDSYGNSFMHWYQQKPGQPPKLLIYRASNLESGIPARFSGSGSRTDFTLTINPVEADDVATYYCQQSNEDPRTFGGGTKLEIKRADAAPTVS
In the case of B2, the “Accumulation of antibody to cancer” value [1] is reported as “high”, the “Dissociation rate constant kd” value [2] is reported as 0.000585 s⁻¹ and the “Binding rate constant ka” value [2] is reported as 18000 M⁻¹ s⁻¹. The Kd [2] was 32.6 nM.
